T1: Sac3(222-572) (S. cerevisiae, UniProt P46674 222-572)
T1 sequence: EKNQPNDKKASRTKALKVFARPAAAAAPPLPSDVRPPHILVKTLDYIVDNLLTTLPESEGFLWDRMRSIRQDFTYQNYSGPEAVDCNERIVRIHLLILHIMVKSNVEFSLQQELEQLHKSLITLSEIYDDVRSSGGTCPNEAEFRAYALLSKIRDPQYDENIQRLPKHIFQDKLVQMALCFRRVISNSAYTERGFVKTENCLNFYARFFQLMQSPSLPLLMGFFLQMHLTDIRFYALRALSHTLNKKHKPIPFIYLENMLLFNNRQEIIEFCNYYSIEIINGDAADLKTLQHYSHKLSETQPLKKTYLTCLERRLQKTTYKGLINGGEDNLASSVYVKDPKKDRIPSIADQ

B1: Thp1(170-455) (domain or fragment)
chain: GKQRILLYLVNKLNNIYFRIESPQLCSNIFKNFQPKSMLAHFNEYQLDQQIEYRYLLGRYYLLNSQVHNAFVQFNEAFQSLLNLPLTNQAITRNGTRILNYMIPTGLILGKMVKWGPLRPFLSQETIDNWSVLYKHVRYGNIQGVSLWLRQNERHLCARQLLIVLLEKLPMVTYRNLIKTVIKSWTTEWGQNKLPYSLIERVLQLSIGPTFEDPGAQEITIYNGIHSPKNVENVLVTLINLGLLRANCFPQLQLCVVKKTTMIQEIVPPVNERITKMFPAHSHVLW
B2: Sem1 (natural protein)
chain: MSTDVAAAQAQSKIDLTKKKNEEINKKSLEEDDEFEDFPIDTWANGETIKSNAVTQTNIWEENWDDVEVDDDFTNELKAELDRYKRENQ

Experiments:
Sac3(222-572) = target: T1, Sac3(222-572); experiment: crystal structure
Thp1(170-455) = target: B1; experiment: crystal structure

binding result (Sac3(222-572)) | binding result (Thp1(170-455)) | Binder
binds | – | B1
– | binds | B2
